B1: hGXII: novel human secreted phospholipase A2 of group XII, mature protein of 167 amino acids (SEQ ID No 2), produced in E. coli (protein)
chain: MALLSRPALTLLLLLMAAVVRCQEQAQTTDWRATLKTIRNGVHKIDTYLNAALDLLGGEDGLCQYKCSDGSKPFPRYGYKPSPPNGCGSPLFGVHLNIGIPSLTKCCNQHDRCYETCGKSKNDCDEEFQYCLSKICRDVQKTLGLTQHVQACETTVELLFDSVIHLGCKPYLDSQRAACRCHYEEKTDL
B2: hGIIA: human group IIA secreted phospholipase A2, used as literature comparator (protein, UniProt P14555 21-144, looked up)
Phospholipase A2, membrane …: NLVNFHRMIKLTTGKEAALSYGFYGCHCGVGGRGSPKDATDRCCVTHDCCYKRLEKRGCGTKFLSYKFSNSGSRITCAKQDSCRSQLCECDKAAATCFARNKTTYNKKYQYYSNKHCRGSTPRC

Legend:
[1] = sPLA2 activity secreted into culture medium of transiently transfected HEK293 cells; format: cell-based; conditions: 1-5 days after transfection
Source text: (§1) A mammalian expression vector containing the full-length hGXII cDNA was first used to transiently transfected HEK293 cells. […] Mass spectrometry analysis gave an experimental mass of 18,702.6±0.5 Da, which agrees well with the mass of 18,702.1 Da calculated from the sequence of mature hGXII shown in FIG. 1A.

[2] = sPLA2 activity assay using radiolabeled E. coli membranes; format: biochemical; conditions: recombinant protein from E. coli; also active on POPG, POPS and POPC vesicles
Source text: as §1
The decrease as the pH is lowered presumably reflects, in part, the protonation of the active site histidine. As for all mammalian sPLA2s examined so far, the enzymatic activity of hGXII on phosphatidylglycerol vesicles is highest (FIG. 3C), which probably reflects the tighter binding of hGXII to anionic vesicles (37). Although hGXII hydrolyzes POPC at only ˜7% of the rate of POPG, this difference is small compared to the greater than 10^5-fold preference of hGIIA for POPG versus POPC (18).

[3] = Ca2+ dependency of the initial velocity of hydrolysis of POPC vesicles; format: biochemical; conditions: POPC vesicles with 1-palmitoyl-2-[8,9-3H]palmitoyl-sn-glycero-3-phosphocholine
Protocol: (§2) FIG. 3 represents the enzymatic properties of hGXII. […] Additional assay details have been reported elsewhere (18).
(§3) Large unilamellar vesicles (0.1 μm) of POPC, POPG, and POPS (31) were used to measure the initial rates of hydrolysis by hGXII in Hank's balanced salt solution with 1.2 mM CaCl2 and 0.9 mM MgCl2 using the fatty acid binding protein assay (17). The pH-rate profile and Ca^2+ dependency for the action of hGXII on POPG and POPC vesicles, respectively, were obtained as described (17).

[4] = pH-rate profile of hydrolysis of POPG vesicles; format: biochemical
Protocol: as §2, §3

[5] = Initial rates of hydrolysis of large unilamellar vesicles, fatty acid binding protein assay; format: biochemical
Protocol: as §2, §3

[6] = from reference (18); cited from earlier work

Row | Molecule | sPLA2 activity secreted into the culture medium versus cells transfected with vector lacking the insert [1] | sPLA2 catalytic activity [2] | Kca (Ca2+ dependence of sPLA2 activity toward POPC vesicles) [3] | pH of maximal activity [4] | POPS as substrate ([5]; POPS vesicles) | specific enzymatic activity compared to other mammalian sPLA2s ([5]; compared to hGIB, hGIIA, hGV, hGX, comparable to mGIIE) | enzymatic activity on phosphatidylglycerol vesicles ([5]; compared with POPC and POPS vesicles) | rate of POPC hydrolysis as % of the rate of POPG ([5]; large unilamellar vesicles (0.1 μm), Hank's balanced salt solution, 1.2 mM CaCl2, 0.9 mM MgCl2) | preference for POPG versus POPC [6]
1 | B1 | barely above | catalytically active | 30 ± 10 µM | ~8.0 | good substrate | low | highest | ~7% | –
2 | B2 | – | – | – | – | – | – | – | – | greater than 10^5 fold
